Experimental data: US12121566B2, “Methods for treating gout” (Horizon Therapeutics USA, Inc., priority 2019, dated 2024)

Columns and labels:
[1] = tested on: patients with chronic gout refractory to conventional therapy; assay: Two replicate randomized, double-blind, placebo controlled six-month studies (Trial 1 and Trial 2): urate lowering and tophi; format: in vivo, human
Method: The efficacy of KXX was studied in adult patients with chronic gout refractory to conventional therapy in two replicate, multicenter, randomized, double-blind, placebo controlled studies of six months duration: Trial 1 and Trial 2. Patients were randomized to receive KXX 8 mg every 2 weeks or every 4 weeks or placebo in a 2:2:1 ratio.
Studies were stratified for the presence of tophi. Seventy-one percent (71%) of patients had baseline tophi. All patients were prophylaxed with an oral antihistamine, intravenous corticosteroid and acetaminophen. Patients also received prophylaxis for gout flares with non-steroidal anti-inflammatory drugs (NSAIDs) or colchicine, or both, beginning at least one week before KXX treatment unless medically contraindicated or not tolerated. Patients who completed the randomized clinical trials were eligible to enroll in a 2-year open label extension study.
To assess the efficacy of KXX in lowering uric acid, the primary endpoint in both trials was the proportion of patients who achieved plasma uric acid (PUA) less than 6 mg/dL for at least 80% of the time during Month 3 and Month 6.
The effect of treatment on tophi was a secondary efficacy endpoint and was assessed using standardized digital photography, image analysis, and a Central Reader blinded to treatment assignment. Approximately 70% of patients had tophi at baseline. A pooled analysis of data from Trial 1 and Trial 2 was performed as pre-specified in the protocols. At Month 6, the percentage of patients who achieved a complete response (defined as 100% resolution of at least one target tophus, no new tophi appear and no single tophus showing progression) was 45%, 26%, and 8%, with KXX 8 mg every 2 weeks, KXX 8 mg every 4 weeks, and placebo, respectively. The difference between KXX and placebo was statistically significant for the every-2-week dosing regimen, but not for the every-4-week dosing regimen.

[2] = tested on: anti-pegloticase antibodies, anti-PEG antibodies; settings: cited from earlier work
[3] = KXX exposure (AUC) by patient weight and age; format: in vivo, human
Source text: In some embodiments, heavier and/or younger patients may have a higher incidence of anti-KXX antibodies, or may have higher anti-KXX drug titers, than lighter and/or older patients. In other embodiments, lighter and/or older patients may have higher drug loading of KXX than heavier and/or younger patients. In some embodiments, lighter patients may have higher exposures of KXX than heavier patients. For example, in some embodiments, lighter patients may have greater than 2-fold exposure to KXX than heavier patients. In some embodiments, lower drug levels in a patient may result in anti-KXX antibodies. […] In other embodiments, older patients may have higher exposures of KXX than younger patients. For example, in some embodiments, older patients may have greater than 2-fold exposure to KXX than younger patients. […] Thus, in some embodiments, additional 8-mg doses of KXX may be beneficial for younger and/or heavier patients. In other embodiments, younger and/or heavier patients may benefit from one or more loading doses of 16 mg of KXX.

rabbits = assay: Reproductive toxicity in rabbits; format: in vivo, rabbit
[4] = post-hoc, if KXX stopped after 2 consecutive uric acid levels greater than 6 mg/dL
[5] = post-hoc, if KXX stopped when uric acid rose to greater than 6 mg/dL on a single occasion

pegloticase
efficacy in patients with creatinine clearance less than or equal to 62.5 mL/min ([1]; KXX 8 mg every 2 weeks): No overall differences | percentage of patients who achieved a complete response of tophi ([1]; Month 6, pooled Trial 1 and Trial 2, KXX 8 mg every 2 weeks): 45% | percentage of patients who achieved a complete response of tophi ([1]; Month 6, pooled Trial 1 and Trial 2, KXX 8 mg every 4 weeks): 26% | Number (%) of Subjects Who Met Response Criteria (plasma uric acid <6 mg/dL for at least 80% of the time during Months 3 and 6) ([1]; Trial 1, 8 mg every 2 weeks, N 43): 20 (47%) Number (%) | Number (%) of Subjects Who Met Response Criteria (plasma uric acid <6 mg/dL for at least 80% of the time during Months 3 and 6) ([1]; Trial 1, 8 mg every 4 weeks, N 41): 8 (20%) Number (%) | Number (%) of Subjects Who Met Response Criteria (plasma uric acid <6 mg/dL for at least 80% of the time during Months 3 and 6) ([1]; Trial 2, 8 mg every 2 weeks, N 42): 16 (38%) Number (%) | Number (%) of Subjects Who Met Response Criteria (plasma uric acid <6 mg/dL for at least 80% of the time during Months 3 and 6) ([1]; Trial 2, 8 mg every 4 weeks, N 43): 21 (49%) Number (%) | mean plasma uric acid level ([1]; approximately 24 hours following the first dose, KXX 8 mg every 2 weeks group): 0.7 mg/dL | efficacy outcome [1, 4]: little change | incidence of infusion reactions [1, 4]: half | reduction of success rates for the primary efficacy endpoint [1, 5]: approximately 20% | reduction of the incidence of infusion reactions [1, 5]: approximately 67% | patients with antibody titer exceeding 1:2430 at any time who maintained a response ([2]; another study, 7 of 65): 10.8% | patients with titers exceeding 1:2430 who developed IRs ([2]; another study, 31 of 52): 60% | patients who never had an antibody titer above 1:2430 who maintained a response ([2]; another study, 58/65): 89.2% | patients who developed high titer anti-pegloticase antibodies and subsequently lost response ([2]; one study, 69 of 169 patients): 41% | participants with high antibody titers who maintained a response (serum urate <6 mg/dL) ([2]; second study): 1 of 52 | participants with high titers who developed IR ([2]; second study): 60% | mean area under the curve (AUC) ([3]; heavier patients): about 4.04 mg/L | exposure to KXX, lighter versus heavier patients ([3]; human, in vivo): greater than 2 fold | exposure to KXX, older versus younger patients ([3]; human, in vivo): greater than 2 fold | mean area under the curve (AUC) ([3]; lighter patients): about 8.92 mg/L | mean area AUC ([3]; older patients): about 8.86 mg/L | mean area AUC ([3]; younger patients): about 3.93 mg/L | mean fetal body weights (rabbits; approximately 25 times the MRHD, maternal doses up to 10 mg/kg twice weekly): No effects | mean fetal and pup body weights (rabbits; approximately 75 times the MRHD, maternal doses up to 30 mg/kg every other day): Statistically significant decreases | teratogenicity (rabbits; approximately 75 times the MRHD, maternal doses up to 30 mg/kg twice weekly): not teratogenic
